Legend:
[1] = target: HCV envelope glycoprotein E2, genotype 1b (hepatitis C virus genotype 1b); assay: CD81 capture ELISA; 1b E1E2 lysate preincubated with antibody (15 µg/ml), added to CD81-coated wells, detected with biotinylated CBH-4D
[2] = target: H77c E2 mutant, Pro525 substituted (hepatitis C virus genotype 1a, strain H77c) (UniProt P27958); assay: ELISA on GNA-captured mutant E2 from 293T lysates
[3] = target: H77c E2 mutant, Asn540 replaced by alanine (hepatitis C virus genotype 1a, strain H77c) (UniProt P27958); assay: ELISA on GNA-captured mutant E2 from 293T lysates
[4] = target: H77c E2 mutant, Asp535 replaced by alanine (hepatitis C virus genotype 1a, strain H77c) (UniProt P27958); assay: ELISA on GNA-captured mutant E2 from 293T lysates
[5] = target: H77c E2 mutant, Gly523 replaced by alanine (hepatitis C virus genotype 1a, strain H77c) (UniProt P27958); assay: ELISA on GNA-captured mutant E2 from 293T lysates
[6] = target: H77c E2 mutant, Asn532 substituted (hepatitis C virus genotype 1a, strain H77c) (UniProt P27958); assay: ELISA on GNA-captured mutant E2 from 293T lysates
[7] = target: H77c E2 mutant, Thr534 substituted (hepatitis C virus genotype 1a, strain H77c) (UniProt P27958); assay: ELISA on GNA-captured mutant E2 from 293T lysates
[8] = target: H77c E2 mutant, Gly530 replaced by alanine (hepatitis C virus genotype 1a, strain H77c) (UniProt P27958); assay: ELISA on GNA-captured mutant E2 from 293T lysates
[9] = target: H77c E2 mutant, Asp533 substituted (hepatitis C virus genotype 1a, strain H77c) (UniProt P27958); assay: ELISA on GNA-captured mutant E2 from 293T lysates
[10] = target: H77c E2 mutant, Ala531 substituted (hepatitis C virus genotype 1a, strain H77c) (UniProt P27958); assay: ELISA on GNA-captured mutant E2 from 293T lysates
[11] = target: H77c E2 mutant, Trp529 replaced by alanine (hepatitis C virus genotype 1a, strain H77c) (UniProt P27958); assay: ELISA on GNA-captured mutant E2 from 293T lysates
[12] = target: HCV envelope glycoprotein E2, genotype 1b (hepatitis C virus genotype 1b); assay: competition ELISA on GNA-captured E2 of 1b HCVpp lysate; competing antibody 20 ug/ml; competitor: biotinylated CBH-7 at 2 ug/ml
[13] = target: HCV envelope glycoprotein E2, genotype 1a (hepatitis C virus genotype 1a) (UniProt P27958); assay: cell-based or functional assay
[14] = target: H77c E2 with substitutions at Val536 (row 10), Phe537 (row 11) and Asn540 (row 12); assay: ELISA on GNA-captured mutant E2 from 293T lysates
[15] = target: H77c E2 mutant F679A (hepatitis C virus genotype 1a, strain H77c) (UniProt P27958); assay: alanine replacement, ELISA
[16] = target: H77c E2 mutant L692A (hepatitis C virus genotype 1a, strain H77c) (UniProt P27958); assay: alanine replacement, ELISA
[17] = target: H77c E2 mutant D698A (hepatitis C virus genotype 1a, strain H77c) (UniProt P27958); assay: alanine replacement, ELISA
[18] = target: H77c E2 mutant I696A (hepatitis C virus genotype 1a, strain H77c) (UniProt P27958); assay: alanine replacement, ELISA
[19] = target: H77c E2 mutant R657A (hepatitis C virus genotype 1a, strain H77c) (UniProt P27958); assay: alanine replacement, ELISA
[20] = target: H77c E2 mutant D658A (hepatitis C virus genotype 1a, strain H77c) (UniProt P27958); assay: alanine replacement, ELISA

human monoclonal antibody HC-1
percent reduction of E2 binding to CD81 [1]: > 90%
percent change in binding vs wild type [2]: < 20%
percent of wild-type binding (% of wild type) [3]: < 10
percent decrease in binding vs wild type [4]: > 80%
percent decrease in binding vs wild type [5]: 60%
percent change in binding vs wild type [6]: < 20%
percent change in binding vs wild type [7]: < 20%
percent decrease in binding vs wild type [8]: > 80%
percent of wild-type binding (% of wild type) [8]: < 10
percent change in binding vs wild type [9]: < 20%
percent change in binding vs wild type [10]: < 20%
percent of wild-type binding (% of wild type) [11]: < 10

human monoclonal antibody CBH-23
percent reduction of E2 binding to CD81 [1]: > 90%
percent competition [12]: > 90%

CBH-5 (antibody)
percent reduction of E2 binding to CD81 [1]: > 90%
IC50 of 1a HCVpp neutralization [13]: 4 µg/mL
neutralization of 1a HCVpp at 20 µg/ml [13]: 60%

CBH-4G (antibody)
percent decrease in binding vs wild type [14]: 70 to 95%

human monoclonal antibody HC-3
percent decrease in binding [15]: > 90%
percent decrease in binding [16]: > 90%
percent decrease in binding [17]: > 90%
percent decrease in binding [18]: > 90%
percent decrease in binding [19]: > 90%
percent decrease in binding [20]: > 90%

HC-12 (antibody)
percent change in binding vs wild type [2]: < 20%
percent change in binding vs wild type [6]: < 20%
percent change in binding vs wild type [7]: < 20%
percent change in binding vs wild type [9]: < 20%
percent change in binding vs wild type [10]: < 20%

human monoclonal antibody HC-11
percent reduction of E2 binding to CD81 [1]: > 90%
IC50 of 1a HCVpp neutralization [13]: 0.9 µg/mL
percent decrease in binding vs wild type [5]: 60%
percent decrease in binding vs wild type [11]: 44%

Source: patent US20120039846A1
